Reference: patent US20190112382A1 (published 2019)

Columns and labels:
[1] = molecular target: T1, extracellular domain of cynomolgous BCMA (cynomolgous, UniProt A0A2K5UD97 1-53); experiment: SPR, IgG immobilised on GLH chip, BCMA in the mobile phase (n = 2)
T1 construct: Used coated on plates in ELISA and in the mobile phase in SPR; also called cyBCMA; cynoBCMA

[2] = molecular target: T2, extracellular domain of human CD269 (BCMA, TNFRSF17) (human, UniProt Q02223 4-54); experiment: SPR, IgG immobilised on GLH chip, BCMA in the mobile phase (n = 3)
T2 construct: also called hBCMA; human BCMA
T2 sequence: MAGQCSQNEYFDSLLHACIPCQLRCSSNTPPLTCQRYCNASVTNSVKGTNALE

T1 sequence (A0A2K5UD97 entry or part of it limits assumed, form in doubt): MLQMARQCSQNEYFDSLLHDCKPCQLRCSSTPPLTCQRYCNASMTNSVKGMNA

B1: J22.9-H (antibody, V domains shown)
VH: EVQLVESGGGLVQPGGSLRLSCAASGFTFSRYWMSWVRQAPGKGLVWVGEINPDSSTINYAPSLKDKFTISRDNAKNTLYLQMNSLRAEDTAVYYCASLYYDYGDAMDYWGQGTLVTVSS
VL: EIVMTQSPATLSVSPGERATLSCKASQSVDSNVAWYQQKPGQAPRALIYSASLRFSGIPARFSGSGSGTEFTLTISSLQSEDFAVYYCQQYNNYPLTFGAGTKLELKR
- Kd [1]: 200 nM
- Kd [2]: 15 nM

B2: J22.9-FSY (antibody, V domains shown)
VH: EVQLVESGGGLVQPGGSLRLSCAASGFTFSRYWFSWVRQAPGKGLVWVGEINPSSSTINYAPSLKDKFTISRDNAKNTLYLQMNSLRAEDTAVYYCASLYYDYGDAYDYWGQGTLVTVSS
VL: EIVMTQSPATLSVSPGERATLSCKASQSVESNVAWYQQKPGQAPRALIYSASLRFSGIPARFSGSGSGTEFTLTISSLQSEDFAVYYCQQYNNYPLTFGAGTKLELK
- Kd [1]: 20 nM
- Kd [2]: 2.2 nM

B3: J22.9-ISY (antibody, V domains shown)
VH: EVQLVESGGGLVQPGGSLRLSCAASGFTFSRYWISWVRQAPGKGLVWVGEINPSSSTINYAPSLKDKFTISRDNAKNTLYLQMNSLRAEDTAVYYCASLYYDYGDAYDYWGQGTLVTVSS
VL: EIVMTQSPATLSVSPGERATLSCKASQSVESNVAWYQQKPGQAPRALIYSASLRFSGIPARFSGSGSGTEFTLTISSLQSEDFAVYYCQQYNNYPLTFGAGTKLELK
- Kd [1]: 17 nM
- Kd [2]: 2 nM
